{"source": "the DeepSol protein solubility set", "experiment": "soluble on expression in E. coli; label from the status in PepcDB or PDB records"}
{"sequence": "MTDTQYIGRFAPSPSGELHFGSLIAALGSYLQARARQGRWLVRIEDIDPPREVPGAAETILRQLEHYGLHWDGDVLWQSQRHDAYREALAWLHEQGLSYYCTCTRARIQSIGGIYDGHCRVLHHGPDNAAVRIRQQHPVTQFTDQLRGIIHADEKLAREDFIIHRRDGLFAYNLAVVVDDHFQGVTEIVRGADLIEPTVRQISLYQLFGWKVPDYIHLPLALNPQGAKLSKQNHAPALPKGDPRPVLIAALQFLGQQAEAHWQDFSVEQILQSAVKNWRLTAVPESAIVNSTFSNASC", "values": [{"measurement": "soluble on expression in E. coli", "value": "soluble"}]}
{"sequence": "QVQLQQPGTELVRPGASVILSCKASGYTFTSYWINWVKQRPGQGLEWVGNIFPSDSYTNYNQKFKDKATLTVDKSSSTAYMQVNSPTSEDSAVYYCTRGARDTWFAYWGQGTLVTVSVAKTTPPSVFPLAPGSAAQTNSMVTLGCLVKGYFPEPVTVTWNSGSLSSGVHTFPAVLQSDLYTLSSSVTVPSSTWPSETVTCNVAHPASSTKVDKKIVPRDC", "values": [{"measurement": "soluble on expression in E. coli", "value": "soluble"}]}
{"sequence": "MSLAFYIATFDIGTTEVKAALADRDGGLHFQRSIALETYGDGNGPVEQDAGDWYDAVQRIASSWWQSGVDARRVSAIVLSGQMQNFLPLDQDHEPLHRAVLYSDKRPLKEAEEINARHGADNLWSALENPMTAASILPKLVFWRASFPQAFGRLRHVVLGAKDYVVLRLTGRHATDRTNASTTGLYRPKDDAWHVELLADYGFSLDLMPRLLEPGEQVGGVSALAARQTGFVSGTPVLCGLGDAGAATLGVGVLDDEDAYLHLGTTGWLARLTQTDPVGDMPVGTIFRLAGIIAGKTLQVAPVLNAGNILQWALTLVGHRPGEDCAEYFHMAAAEVQGVTVPDGLLFVPYLHAERCPVELPAPRGALLGVTGATTRAQILLAVLEGAALSLRWCAELLGMEKVGLLKVVGGGARSEAWLRMIADNLNVSLLVKPDAHLHPLRGLAALAAVELEWSHSIQDFLREADLREPASNILHPQPCDEGRRRRKFERFKQCVETLGRLDEGHHHHHH", "values": [{"measurement": "soluble on expression in E. coli", "value": "soluble"}]}
{"sequence": "MGSDKIHHHHHHMAILLMQKPDNKAKQFICKKLGINNLGITKPGGRGLTQPVVKLELKRPLYAKGNNYNIINNDETDRYWKPAGITKIFLDRLTNCVSQEAGNMALAEGYFSLEDRYTLYFDISKIQQEFVDLNAQEFFRQFDNLKTLGMLADIAIPLQLCNGLDASITNFSDGQFQSVYIYSIVELFKDRNCLTLLDEPDSFLHPEWQFEFPKQVLEITDAAAKSNHILMSSHSASTITTANENLINLFELQDDKIVVNKVNKADIIKSLSAGLISFSESEAHLNIHHALKNTTGAVLFTEGITDEMILETAWTKIFPAQKRSFAIQNAFDRIFLRNLFSREELEKNFPDRIMFALFDFDEAYDDWNGLKKESDSETDPYKGLSKQLKCKHHYAMLLPVPDIQALKHQVLNPEGKPWGKGAQSHLPIELLFYKDEFLGQWFQKKATPGGGEIIEFIGDKVSFAKNFVPTLEATCFEPLKLVFEFIQSKC", "values": [{"measurement": "soluble on expression in E. coli", "value": "not soluble"}]}
{"sequence": "MGHHHHHHSHMSEPLCTSRPVLLPLNLKNIAPGRCISLTPFGHTDNLGFQCETCTDPNLNKSIPPKLEDPAFSKNELCSVTLTFYQQAEQVIQHKQFYLSLLNLSMDAVRNSLTQPGLLYCYLVTKAFMLEGFPIFFEETNGMLGLYLVFRRDLLHLHESYLRLLIDNLGNYDISVDSVGRSYIIKLCPVGNVSRIPTIPADNVCLAVNNLDYGDDVKASWIECFNIVSRLS", "values": [{"measurement": "soluble on expression in E. coli", "value": "soluble"}]}
{"sequence": "MGSDKIHHHHHHMGVQSAVRVHRAISEIGQDAWDACAASTGDPFVSYDFLSILEESGCVAARTGWAPQHLTVLDEADQVAGVMPLYLKSHSQGEYVFDHSWADAYERAGGRYYPKLQCSSPFSPVTGSRLIVRPDIDAAEGRSALMGGALTLCERMGASSLHVTFPVEDQWRWMGERGMLLRQDQQYHWENRGYETFDDFLGALSANRRKTIRRERRDAQEGLEIVALTGADLTEDHWDAFFAFYMDTGGRKWGRPYLNRPFFSLLGQRMADKVLLILARRPGGPFIAGALNLLGRDCLYGRHWGCVEDAPFLHFELCYYQAIEHAIRLGLPRVEAGAQGQHKIARGYLPSAVYSAHWIADPMLREPVARYLERERAAVESDMEMLTEEYSPFREER", "values": [{"measurement": "soluble on expression in E. coli", "value": "not soluble"}]}
{"sequence": "MGHHHHHHSHMSSPSRKRTIAESKKKHEEKQMKAQQLREKLREEKTLKLQKLLEREKDVRKWKEELLDQRRRMMEEKLLHAEFKREVQLQAIVKKAQEEEAKVNEIAFINTLEAQNKRHDVLSKLKEYEQRLNELQEERQRRQEEKQARDEAVQERKRALEAERQAR", "values": [{"measurement": "soluble on expression in E. coli", "value": "soluble"}]}
{"sequence": "MGSDKIHHHHHHMIYIDKNESPVTPLDEKTMTSIISATPYNLYPDAAYEQFKEAYAKFYGLSPEQIIAGNGSDELIQKLMLIMPEGPALTLNPDFFMYQAYAAQVNREIAFVDAGSDLTFDLETILTKIDEVQPSFFIMSNPHNPSGKQFDTAFLTAIADKMKALNGYFVIDEAYLDYGTAYDVELAPHILRMRTLSKAFGIAGLRLGVLISTAGTIKHIQKIEHPYPLNVFTLNIATYIFRHREETRVFLTMQRQLAEQLKQIFDTHVADKMSVFPSNANFVLTKGSAAHQLGQYVYEQGFKPRFYDEPVMKGYVRYSIATASQLKQLEEIVKEWSAKYDLSKTTKHS", "values": [{"measurement": "soluble on expression in E. coli", "value": "not soluble"}]}
{"sequence": "ACTKNAIAQTGFNKDKYFNGDVWYVTDYLDLEPDDVPKRYCAALAAGTASGKLKEALYHYDPKTQDTFYDVSELQVESLGKYTANFKKVDKNGNVKVAVTAGNYYTFTVMYADDSSALIHTCLHKGNKDLGDLYAVLNRNKDAAAGDKVKSAVSAATLEFSKFISTKENNCAYDNDSLKSLLTK", "values": [{"measurement": "soluble on expression in E. coli", "value": "soluble"}]}
{"sequence": "MGSDKIHHHHHHMTGDATPPVGLRFAQDKTHEVFMKRYRHTQILALLETRSAIRATEAAEMLGVSVGTIRRDMAELEAGGYLNRTHGGAFAAIEGEAGFMRRTCWNRDKKRVIGQAAAAHISSGSVVFIDGGTTPEAMLPFLVEKTSLTVVTCGLNIALQLLRWPYISTILLGGEVHAESRTVTGTLPVTQLDSFGMRFDMAVIATAGISAEHGATNRMLERLALKQLVLRNSASSILVGDSSKVNCAFLGRVAPLSAFSLCIMDDDLTDEQKAKLSEAGRFEFVPLEGSRRR", "values": [{"measurement": "soluble on expression in E. coli", "value": "not soluble"}]}
{"sequence": "LKSSRFHEKILCDIGGVPMFVATARRVSSVDEVCIALDDEKVLSIAKEYGLNAVLTSKDHESGTDRINEACKKLALKDDEIIINVQADEPFIECENLLKFKEFASFCLDKKAFMASCYKKITQEEAMDPNLVKVLCDKEGYALYFSRAKIPYERENYEESFKGHLGIYAYSVKALREFCSLSSSALERAEKLEQLRAIENGKKIKMLEISTTSMGIDTKEDYERALKIYLEK", "values": [{"measurement": "soluble on expression in E. coli", "value": "not soluble"}]}
{"sequence": "MSLYQEFFTFIPVDIEELDKAFGGGLIRGATISIMYDAFSLGWALGFEMVKNLIRRNSFGVIHNYNLPTIKLISRASFVGLNIQELAKRKEIMILDVFGSKYDVPPYADYVLQVPNPTPETLNPKIESVYENKIFQVAGDRRIVKLVYTLDGVATMFGEEVAIKLLNGELAWLAKMYGKRNVMTILLLNVDMVSKKFIAWTSGVSDIVITFQSLTEEREGELVERMTVIKSLNPEFEPTSYEFRVTATGTGSHALDFRKIENEGHHHHHH", "values": [{"measurement": "soluble on expression in E. coli", "value": "not soluble"}]}
{"sequence": "MSLATIKDIAKEVGCSISTVSRVLNNDPTLSVGDETRSRIFEVAEEIGYRKKTLKTLVKNIAFLYWLTDNEELEDVYFQTMRVEIEKKARENNIELTTYKLEGGIEKIPLDIDGFIAVGSFMNRELEYLRELTPHGVFIDSTPDPAHYDSVRPDLAQITRQAVEVLVEQGHEKIGFIGGTYHNLDTDAEEMDGRERAFRQTMEERDLLREDFIFCRRGFSVDNGHYLMNQAVEQLGEELPTAFYVAADPIAVGCLQVLNEQQIEIPKRVSLISVNDTSISKYVSPPLTTFHIDLEEICQNAIQLLLERVLKKRNIVKTVYIGAELITRKSTEGHHHHHH", "values": [{"measurement": "soluble on expression in E. coli", "value": "soluble"}]}
{"sequence": "MFKKFLSLCIVSTFSVAATSALAQPNQLVGKSSPQQLAPLMKAASGKGIKNQYIVVLKQPTTIMSNDLQAFQQFTQRSVNALANKHALEIKNVFDSALSGFSAELTAEQLQALRADPNVDYIEQNQIITVNPIISASANAAQDNVTWGIDRIDQRDLPLNRSYNYNYDGSGVTAYVIDTGIAFNHPEFGGRAKSGYDFIDNDNDASDCQGHGTHVAGTIGGAQYGVAKNVNLVGVRVLGCDGSGSTEAIARGIDWVAQNASGPSVANLSLGGGISQAMDQAVARLVQRGVTAVIAAGNDNKDACQVSPAREPSGITVGSTTNNDGRSNFSNWGNCVQIFAPGSDVTSASHKGGTTTMSGTSMASPHVAGVAALYLQENKNLSPNQIKTLLSDRSTKGKVSDTQGTPNKLLYSLTDNNTTPNPEPNPQPEPQPQPDSQLTNGKVVTGISGKQGELKKFYIDVPAGRRLSIETNGGTGNLDLYVRLGIEPEPFAWDCASYRNGNNEVCTFPNTREGRHFITLYGTTEFNNVSLVARY", "values": [{"measurement": "soluble on expression in E. coli", "value": "not soluble"}]}
{"sequence": "MSLHPETSTELADIRKKAGRRRSIVFVAGNFNIVHPGHLRLLKFAADCGDYLVVGVTADPGYDWMLPAELRLEGVRAIGVVDHAFLLHDAPEDFIAALQPSVVVKGKEHEGADNPEKAVLDGYGGRLVFSSGEVAFSSLDLIKREFREFNPSSIVKPLDYPRRHRFELLELKNVLAGFPKLRVLVLGDLIVDEYIACDPLGLSQEDPTIVVTPVLRELFVGGAGIVAGHAAGMGAQVALLTVGGGDAMADFARERLASYNVDATILTDESRPTTTKQRFRAGNKTLLRVSHLKQHDVDADLQTRMLETIEHRLPSTDLVVFSDFNYGCLPTRLVEAIGQACRARGVPMVADSQSSSQVGDISRFAEMLLIKPTEREARLAMRDFDSGLVVLVEALREKARAKNVILTLAAEGLLVHAETGSAGTVVTDRLPAFNTAPKDAAGAGDSFFVCAALALAIGTDIWRSAYLASIAAACQVGRIGNIPVTARDIIRELDTEGHHHHHH", "values": [{"measurement": "soluble on expression in E. coli", "value": "soluble"}]}
{"sequence": "MNITPFPTLSPATIDAINVIGQWLAQDDFSGEVPYQADCVILAGNAVMPTIDAACKIARDQQIPLLISGGIGHSTTFLYSAIAQHPHYNTIRTTGRAEATILADIAHQFWHIPHEKIWIEDQSTNCGENARFSIALLNQAVERVHTAIVVQDPTMQRRTMATFRRMTGDNPDAPRWLSYPGFVPQLGNNADSVIFINQLQGLWPVERYLSLLTGELPRLRDDSDGYGPRGRDFIVHVDFPAEVIHAWQTLKHDAVLIEAMESRSLRLEHHHHHH", "values": [{"measurement": "soluble on expression in E. coli", "value": "not soluble"}]}
{"sequence": "GNYHVTLQASYIAKNVEDVEDAIGVAISQIGKLLNKGSLDYVDIDVGLTICPKCGEPIDCVLVVAKTAIVGILLSMKVFNAESPEHAVRIAKSSIGRALKDIP", "values": [{"measurement": "soluble on expression in E. coli", "value": "not soluble"}]}
{"sequence": "MSLTSSQKDIINDILSAMQCYPENEAFIIDDKHYTYAQLGEITASITHSLSEIKDEKIGIVAENRIETYAAILAVLAGGKTYVILHPAYPEERNLKIAALAGLRTLLCTSDTDRSAFGTGHFRIIDTDRLPGKAQSEQQSHSSNEERNAYIIFTSGSTGEPKGVPITRANLNAFYRAYSLLDWNLDEHDRMLQMFELTFDVSVVSLLYPLTLGAAVYTVGHQDVKHFKVFELLEKYQLTFATVTPSLLQLLSPYFDEINLPSLKYLGVSAEASQTELLERFRKSVPNATFINLYGPTEATIYCTCYRIPASDKCKHYNGMVAIGKPFPGIRAIIADEEGNELPQGETGELWVSGRQVMKGYLDDPEKSALVLIHRPDGQIYYRTGDLCILDSDGDIIYCGRKDYQVKIQGFRIELSEIEYTAQSFFKTPCSVAAVPLLCDGICNELHLAVETTECTQSALIEYLKEKLPKYMLPKQIHCISQFPVTNSNKTDRKKIAELIKEGHHHHHH", "values": [{"measurement": "soluble on expression in E. coli", "value": "soluble"}]}
{"sequence": "MAHHHHHHMGTLEAQTQGPGSMLKSVGVILVLSSPSGCGKTTVANKLLEKQKNNIVKSVSVTTRAARKGEKEGKDYYFVDREEFLRLCSNGEIIEHAEVFGNFYGVPRKNLEDNVDKGVSTLLVIDWQGAFKFMEMMREHVVSIFIMPPSMEELRRRLCGRRADDSEVVEARLKGAAFEISHCEAYDYVIVNEDIEETADRISNILRAEQMKTCRQVGLRELLESRFPIED", "values": [{"measurement": "soluble on expression in E. coli", "value": "soluble"}]}
